Data reported in patent US20240402174A1 (Takeda / Millennium, published 2024).

T1: GII.2 VLP (norovirus Hu/GII.2/OH10026/2010/JP)
T1 chain: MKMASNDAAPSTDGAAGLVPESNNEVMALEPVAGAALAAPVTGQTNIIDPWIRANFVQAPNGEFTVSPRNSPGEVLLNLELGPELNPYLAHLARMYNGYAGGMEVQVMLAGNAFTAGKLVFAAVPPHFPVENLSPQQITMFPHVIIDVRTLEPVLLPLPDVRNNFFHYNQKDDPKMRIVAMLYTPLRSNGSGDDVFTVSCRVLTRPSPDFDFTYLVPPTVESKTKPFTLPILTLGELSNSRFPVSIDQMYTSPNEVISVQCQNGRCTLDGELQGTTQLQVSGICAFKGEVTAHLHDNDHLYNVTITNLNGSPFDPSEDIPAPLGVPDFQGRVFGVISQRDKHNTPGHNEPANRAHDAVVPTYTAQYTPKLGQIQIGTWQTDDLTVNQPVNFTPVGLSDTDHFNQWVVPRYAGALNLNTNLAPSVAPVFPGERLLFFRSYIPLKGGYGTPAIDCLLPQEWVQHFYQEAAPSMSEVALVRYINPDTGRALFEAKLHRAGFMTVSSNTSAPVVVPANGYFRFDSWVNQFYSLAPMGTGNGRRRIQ

T2: GII.4/Sydney VLP (norovirus …, UniProt P54635 1-538)
T2 construct: also called Hu/GII.4/Sydney/NSW0514/2012/AU
T2 chain: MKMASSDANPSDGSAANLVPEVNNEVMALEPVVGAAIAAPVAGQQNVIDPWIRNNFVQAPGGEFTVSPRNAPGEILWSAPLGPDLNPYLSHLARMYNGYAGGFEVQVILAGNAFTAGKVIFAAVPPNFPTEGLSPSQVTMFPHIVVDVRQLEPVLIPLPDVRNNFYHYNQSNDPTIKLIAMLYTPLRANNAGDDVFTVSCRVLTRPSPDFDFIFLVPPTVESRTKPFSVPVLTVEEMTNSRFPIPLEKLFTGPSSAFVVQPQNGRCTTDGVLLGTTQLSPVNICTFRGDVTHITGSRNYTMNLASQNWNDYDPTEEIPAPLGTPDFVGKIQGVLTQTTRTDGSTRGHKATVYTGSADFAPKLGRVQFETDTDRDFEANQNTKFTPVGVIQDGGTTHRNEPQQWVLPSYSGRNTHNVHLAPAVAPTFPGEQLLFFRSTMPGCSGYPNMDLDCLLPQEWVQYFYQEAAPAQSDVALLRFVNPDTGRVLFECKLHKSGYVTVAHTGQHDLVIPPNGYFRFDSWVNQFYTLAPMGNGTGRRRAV

T3: GII.3 VLP (norovirus Hu/GII.3/NIHIC8.1/2011/USA)
T3 construct: also called Hu/GII.3/NIHIC8.1/2011/USA
T3 chain: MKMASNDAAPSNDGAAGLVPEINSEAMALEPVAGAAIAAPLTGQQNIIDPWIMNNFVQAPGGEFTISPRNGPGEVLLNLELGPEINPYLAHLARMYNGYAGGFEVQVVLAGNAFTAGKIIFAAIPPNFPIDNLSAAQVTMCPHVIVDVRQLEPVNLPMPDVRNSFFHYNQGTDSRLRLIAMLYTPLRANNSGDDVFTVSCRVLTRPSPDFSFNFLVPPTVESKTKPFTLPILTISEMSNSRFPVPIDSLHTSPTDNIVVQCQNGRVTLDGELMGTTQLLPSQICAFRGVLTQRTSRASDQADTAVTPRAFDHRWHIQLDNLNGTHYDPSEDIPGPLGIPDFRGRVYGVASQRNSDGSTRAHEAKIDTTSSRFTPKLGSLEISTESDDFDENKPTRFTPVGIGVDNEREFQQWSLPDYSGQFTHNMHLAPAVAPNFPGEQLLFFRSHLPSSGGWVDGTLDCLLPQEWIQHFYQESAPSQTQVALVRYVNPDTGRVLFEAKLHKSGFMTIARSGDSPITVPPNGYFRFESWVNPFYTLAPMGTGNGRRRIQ

T4: GII.4/New Orleans VLP (norovirus Hu/GII.4/New …, UniProt P54635 1-539)
T4 construct: also called Hu/GII.4/New Orleans1805/2009/USA
T4 chain: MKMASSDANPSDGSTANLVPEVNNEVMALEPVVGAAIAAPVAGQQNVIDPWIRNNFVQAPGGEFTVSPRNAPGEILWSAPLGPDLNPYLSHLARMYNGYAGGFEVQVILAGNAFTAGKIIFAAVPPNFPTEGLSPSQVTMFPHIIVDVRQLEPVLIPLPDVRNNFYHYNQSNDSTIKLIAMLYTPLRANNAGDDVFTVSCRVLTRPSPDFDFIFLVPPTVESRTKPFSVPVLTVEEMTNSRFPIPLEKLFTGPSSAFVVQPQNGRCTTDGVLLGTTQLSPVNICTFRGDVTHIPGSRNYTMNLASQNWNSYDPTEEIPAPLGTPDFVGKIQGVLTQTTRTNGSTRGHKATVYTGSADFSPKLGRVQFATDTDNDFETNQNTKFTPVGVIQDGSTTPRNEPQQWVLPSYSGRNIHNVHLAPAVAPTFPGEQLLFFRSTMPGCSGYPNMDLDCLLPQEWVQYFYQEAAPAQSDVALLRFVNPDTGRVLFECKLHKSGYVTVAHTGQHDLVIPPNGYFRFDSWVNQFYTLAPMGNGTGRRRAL

T5: GII.4/Yerseke VLP (norovirus Hu/GII.4/Yerseke38/2006/NL, UniProt P54635 1-539)
T5 construct: also called Hu/GII.4/Yerseke38/2006/NL
T5 chain: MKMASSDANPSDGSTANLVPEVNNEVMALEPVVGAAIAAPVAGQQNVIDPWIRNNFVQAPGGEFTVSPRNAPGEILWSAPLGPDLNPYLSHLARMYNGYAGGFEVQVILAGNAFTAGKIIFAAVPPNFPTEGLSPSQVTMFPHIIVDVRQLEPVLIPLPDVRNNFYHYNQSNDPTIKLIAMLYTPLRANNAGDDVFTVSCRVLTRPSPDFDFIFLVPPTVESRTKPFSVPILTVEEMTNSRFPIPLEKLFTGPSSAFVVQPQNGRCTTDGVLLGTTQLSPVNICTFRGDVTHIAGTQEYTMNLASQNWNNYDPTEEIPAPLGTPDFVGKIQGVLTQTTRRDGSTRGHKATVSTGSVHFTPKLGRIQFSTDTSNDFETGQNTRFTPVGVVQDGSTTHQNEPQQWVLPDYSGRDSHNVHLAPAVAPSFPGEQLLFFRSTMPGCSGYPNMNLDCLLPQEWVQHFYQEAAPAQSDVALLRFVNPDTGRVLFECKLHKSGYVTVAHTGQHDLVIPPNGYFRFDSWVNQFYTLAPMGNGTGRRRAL

B1: human mAb 1227 (antibody, V domains shown)
VH: QVQLVQSGGGMVQPGGSLSLSCAASGFTLSNYAMTWVRQAPGKGLEWVSSIGGSGGTTYYADSVKGRFTISRDSSMNTLYLQMSNLRAGDTAVYYCAKDKTRTLRLGYSGMDVWGQGTTVTVSS
VL: DIRLTQSPSSLSASVGDRVTITCRASQSISSYLNWYQQKPGKAPDLLIYGASSLQSGVPSRFSGSGSGTDFTLTISSLQPEDFGNYYCQQSFSTPRTFGQGTKVEL
notes: also called A1227
B2: human mAb 1431 (antibody, V domains shown)
VH: QVQLVQSGGGLVQPGGSLRLSCAASGFAFSNHGMHWVRQAPGKGLEWLSYISGSTGAIHYANSVKGRFTISRDNARNSLDLQMNSLGDEDTAVYYCARDGPRPDGTGYAGPSNDYWGQGTLVSVSS
VL: EIVLTQSPASLSLSPGERATLSCKASRSISIYLAWYQQKPGQAPRLLIYDASYRAIGIPARFSGSGSGTDFTLTISNLEPEDFAVYYCQHRSSWPALTFGGGTKVEI
notes: also called A1431

Assays:
Test in all cases: multiplex microsphere immunoassay
[1] = biological target: T1, GII.2 VLP
[2] = biological target: T2, GII.4/Sydney VLP
[3] = biological target: T3, GII.3 VLP
[4] = biological target: T4, GII.4/New Orleans VLP
[5] = biological target: T5, GII.4/Yerseke VLP

Binder	EC50 [1] [ng/mL]	EC50 [2] [ng/mL]	EC50 [3] [ng/mL]	EC50 [4] [ng/mL]	EC50 [5] [ng/mL]	binding result [1]	binding result [3]
B1	105	12	6	7	2		
B2		26		18	7	no binding	no binding
